Source: US20060257938A1, “Method of screening for drugs that block ligand binding to a lipid binding protein” (priority 2005, published 2006)
Numbering of substitutions follows the chain as printed.

B1: 38V2, 72A (protein, listed as Rattus norvegicus)
chain: AFDGTWKVDRNENYEKFMEKMGINVVKRKLGAHDNLKVTITQEGNKFTVKESSNFRNIDVVFELGVDFAYSAADGTELTGTWTMEGNKLVGKFKRVDNGKELIAVREISGNELIQTYTYEGVEAKRIFKKE
modifications: PEPTIDE (1)...(131) wild-type rat intestinal fatty acid binding protein
B2: 38W1, 72A (protein, listed as Rattus norvegicus)
chain: B1 chain with V38W
modifications: PEPTIDE (1)...(131) wild-type rat intestinal fatty acid binding protein
B3: 38Y1, 72A (protein, listed as Rattus norvegicus)
chain: B1 chain with V38Y
modifications: PEPTIDE (1)...(131) wild-type rat intestinal fatty acid binding protein
B4: 40V1, L72A (protein, listed as Rattus norvegicus)
chain: B1 chain with V38L, I40V
modifications: PEPTIDE (1)...(131) wild-type rat intestinal fatty acid binding protein
B5: 102Q, 72A (protein, listed as Rattus norvegicus)
chain: B1 chain with V38L, L102Q
modifications: PEPTIDE (1)...(131) wild-type rat intestinal fatty acid binding protein
B6: 40Y3, L72A (protein, listed as Rattus norvegicus)
chain: B1 chain with V38L, I40Y
modifications: PEPTIDE (1)...(131) wild-type rat intestinal fatty acid binding protein
B7: 47A1, L72A (protein, listed as Rattus norvegicus)
chain: B1 chain with V38L, F47A
modifications: PEPTIDE (1)...(131) wild-type rat intestinal fatty acid binding protein
B8: 40F2, L72A (protein, listed as Rattus norvegicus)
chain: B1 chain with V38L, I40F
modifications: PEPTIDE (1)...(131) wild-type rat intestinal fatty acid binding protein
B9: 47C3, L72A (protein, listed as Rattus norvegicus)
chain: B1 chain with V38L, F47C
modifications: PEPTIDE (1)...(131) wild-type rat intestinal fatty acid binding protein

Experiment: Probe fluorescence ratio response to palmitic acid relative to ADIFAB2
Type: binding
Conditions: response relative to ADIFAB2
Outline: (§1)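 Fluorescently labeled rat intestinal FABP variants were read at two emission wavelengths, near the unbound maximum (about 420 to 480 nm) and the FFA-bound maximum (about 495 to 580 nm). R = Fλ1/Fλ2 after subtracting probe-free intensity; ΔR = R+agent − R0, normalized to ADIFAB2 (rI-FABP-L72A).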
For B1, the “DR/DR PA” value was 1.50. With B2 the “DR/DR PA” value was 1.55. With B3 the “DR/DR PA” value was 1.52. With B4 the “DR/DR PA” value was 0.91. In the case of B5, the “DR/DR PA” value is reported as 0.30. In the case of B6, the “DR/DR PA” value is reported as 0.29. In the case of B7, the “DR/DR PA” value is reported as 0.30. In the case of B8, the “DR/DR PA” value is reported as 0.80. In the case of B9, the “DR/DR PA” value is reported as 0.23.

Experiment: Probe fluorescence ratio response to oleic acid relative to ADIFAB2
Type: binding
Conditions: response relative to ADIFAB2
Outline: as §1
In the case of B1, the “DR/DR OA” value is reported as 1.75. With B2 the “DR/DR OA” value was 1.58. In the case of B3, the “DR/DR OA” value is reported as 1.72. In the case of B4, the “DR/DR OA” value is reported as 1.21. For B5, the “DR/DR OA” value was 0.60. With B6 the “DR/DR OA” value was 0.48. For B7, the “DR/DR OA” value was 0.59. In the case of B8, the “DR/DR OA” value is reported as 0.90. For B9, the “DR/DR OA” value was 0.35.

Experiment: Probe fluorescence ratio response to linoleic acid relative to ADIFAB2
Type: binding
Conditions: response relative to ADIFAB2
Outline: as §1
With B1 the “DR/DR LA” value was 1.70. In the case of B2, the “DR/DR LA” value is reported as 2.41. For B3, the “DR/DR LA” value was 1.82. With B4 the “DR/DR LA” value was 1.24. For B5, the “DR/DR LA” value was 0.66. In the case of B6, the “DR/DR LA” value is reported as 0.50. With B7 the “DR/DR LA” value was 0.58. With B8 the “DR/DR LA” value was 0.90. With B9 the “DR/DR LA” value was 0.37.

Experiment: Probe fluorescence ratio response to arachidonic acid relative to ADIFAB2
Type: binding
Conditions: Arachidonic acid; response relative to ADIFAB2
Outline: as §1
In the case of B1, the “DR/DR AA” value is reported as 1.65. With B2 the “DR/DR AA” value was 1.35. With B3 the “DR/DR AA” value was 2.08. With B4 the “DR/DR AA” value was 1.20. For B6, the “DR/DR AA” value was 0.89. For B7, the “DR/DR AA” value was 0.54. For B8, the “DR/DR AA” value was 0.89. For B9, the “DR/DR AA” value was 0.32.

Same assay, conditions: arachidonic acid; response relative to ADIFAB2
With B5 the “DR/DR AA” value was 0.62.

Experiment: Probe fluorescence ratio response to linolenic acid relative to ADIFAB2
Type: binding
Conditions: response relative to ADIFAB2
Outline: as §1
With B1 the “DR/DR LNA” value was 1.67. For B2, the “DR/DR LNA” value was 1.34. For B3, the “DR/DR LNA” value was 1.88. With B4 the “DR/DR LNA” value was 1.28. With B5 the “DR/DR LNA” value was 0.71. For B6, the “DR/DR LNA” value was 0.49. In the case of B7, the “DR/DR LNA” value is reported as 0.57. With B8 the “DR/DR LNA” value was 0.99. In the case of B9, the “DR/DR LNA” value is reported as 0.35.
